Assay results: the supplement of paper PMC10567573

B1: TRIM35 (parent)
chain: PTCPVCKDRASPADLRTNHTLNNL
B2: DYRK1B (parent)
chain: RFQDLVLRMLEYEPAARISPLGAL
B3: DCTD (parent)
chain: VKGCSMYVALFPCNECAKLIIQAG

Variants of: B1
Assay: protein stability index of a GFP-peptide fusion (GPS, HEK-293T) (PSI 1-6); higher = more stable
Details: c terminus: a fixed tail appended
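Note: lentivirally expressed fusions sorted by FACS into six bins by GFP to DsRed ratio, PSI derived from sequencing read proportions per bin multiplied by bin number.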

Protein stability index of substitutions, site by site:
C3: A 4.44, E 4.06, V 4.1, H 3.84, R 4.46, I 4.38, F 3.79, K 4, N 4.05, T 4.36, Y 3.24, D 4.75, S 4.55, W 3.89, Q 4.24, G 4.3, P 4.02, M 4.08, L 4.28
V5: C 3.15, A 3.33, I 2.69, D 4.16, G 3.7, F 2.04, K 3.59, E 3.65, H 2.36
P4: G 2.71, W 2.58, Q 3.28, H 3.03, D 3.71, S 2.98, C 2.79, A 2.72, R 3.38, Y 3.01, F 2.73, E 3.42, M 3.16, I 2.72, V 3.19, N 3.26, T 3.3, K 3.21, L 3.32
P1: S 2.8, I 2.63, W 1.6, Q 2.7, N 2.41, E 2.75, R 2.56, M 2.62, D 3.2, T 2.99, C 3.87, H 2.95, K 2.82, G 2.17, L 2.62, Y 2.47, A 2.64, F 2.11, V 2.85
T2: M 3.14, L 2.79, A 3.67, N 3.26, E 3.47, K 3.52, C 2.9, F 2.33, P 3.58, Y 2.3, W 2.2, R 3.12, S 3.24, Q 3.27, H 2.82, I 2.71, D 3.68, V 3.82, G 2.95

Variants of: B2
Assay: as above
Details: c terminus: a fixed tail appended

Protein stability index, by site and new letter:
L24: S 2.08, P 1.6, T 4.33, A 2.93, D 2.29, G 1.35, E 2.36, Q 2.27, F 1.95, H 2.36, I 4.35, N 1.82, C 2.82, K 1.31
S19: G 1.07, D 1.76, Q 1.55, Y 3.82, E 3.96, L 4.05, P 2.61, V 2.91, R 2.38, K 3.06, A 1.17
A23: T 2.04, D 1.42, K 1.29, F 1.59, R 2.45, Y 2.71, Q 2.06, M 2.25, G 2.75, H 2.52
P20: W 3.32, Y 4.39, F 2.2, Q 2.29, N 3.12, C 3.75, V 3.27, G 2.01, I 2.64, E 2.84, T 2.1, S 2.53
I18: T 1.3
L21: E 1.56, P 1.93, S 2.27, K 1.19, F 1.36, I 2.48, C 1.98, D 1.78, M 1.68, Y 2.98, T 2, A 1.75, R 1.77, V 2.56, H 3.73
G22: M 2.2, E 3.2, F 2.04, L 2.02, W 2.76, H 1.52, T 3.41, C 1.86, I 2.49, K 2.67, D 2.68, V 3.1, A 2.95, Y 1.71

Variants of: B3
Assay: as above
Details: c terminus: a fixed tail appended

Protein stability index, by site and new letter:
K2: W 3.93, H 2.42, P 2.71, T 3.52, D 2.7
